{"source": "patent US20240247080A1", "about": "“GLP1/GIP/NPY2 RECEPTOR TRIPLE AGONISTS” (Boehringer Ingelheim International GmbH, priority 2022, published 2024)", "note": "Starred links: 1 amine or outer side, 2 acyl side, 3 side chain; linkers in the order of their positions; H or OH if unused. Non-standard residues stand in square brackets, D forms with d. Groups on a side chain read outwards from the residue. No end group written: not given here. *: point of attachment. C20 diacid = O=C(O)CCCCCCCCCCCCCCCCCCC(=O)*; C18 diacid = O=C(O)CCCCCCCCCCCCCCCCC(=O)*; γGlu = O=C(O)[C@H](CCC(=O)[*:2])N[*:1]; εLys = N[C@@H](CCCCN[*:1])C(=O)[*:2]; AEEA = NCCOCCOCC(=O)O; Aib = CC(C)(N)C(=O)O; Ahx = NCCCCCC(=O)O", "data": [{"molecular_target": "T1, human neuropeptide Y2 receptor (human, UniProt P49146 1-381)", "T1 sequence (looked up)": "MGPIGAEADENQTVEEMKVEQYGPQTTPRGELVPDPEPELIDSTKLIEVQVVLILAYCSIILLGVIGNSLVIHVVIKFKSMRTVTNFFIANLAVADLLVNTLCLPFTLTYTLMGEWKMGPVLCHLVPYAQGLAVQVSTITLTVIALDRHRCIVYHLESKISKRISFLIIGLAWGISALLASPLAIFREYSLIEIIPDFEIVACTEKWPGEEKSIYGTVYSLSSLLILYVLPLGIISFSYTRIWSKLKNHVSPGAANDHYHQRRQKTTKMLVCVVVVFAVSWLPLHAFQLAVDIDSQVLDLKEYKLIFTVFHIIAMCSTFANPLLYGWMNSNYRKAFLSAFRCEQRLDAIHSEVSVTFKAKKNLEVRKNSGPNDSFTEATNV", "assay": "cell-based or functional assay", "units": {"EC50 hNPY2R 0.5% hP (CreLuc)": "nM", "EC50 hNPY2R 100% hP (CreLuc)": "nM"}, "values": [{"binder": "Y[Aib]EGTFTSDYSI[Aib]LEKQAE[Aib]AFVEWLIK([γGlu-γGlu-γGlu-γGlu-C20 diacid])GGPSEGASLRHYYNWLTRQRY-NH2 (also: TFA salt)", "note": "[Compound 280]", "EC50 hNPY2R 0.5% hP (CreLuc)": 15.6, "EC50 hNPY2R 100% hP (CreLuc)": 91.4}, {"binder": "Y[Aib]EGTFTSDYSI[Aib]LEKQAQ[Aib]AFVEWLIK([γGlu-γGlu-γGlu-γGlu-C18 diacid])GGPEEGASLRHYYNWLTRQRY-NH2 (also: TFA salt)", "note": "[Compound 272]", "EC50 hNPY2R 0.5% hP (CreLuc)": 23.8, "EC50 hNPY2R 100% hP (CreLuc)": 113}, {"binder": "Y[Aib]EGTFTSDYSI[Aib]LEKQAQ[Aib]EFVEWLIK([γGlu-γGlu-γGlu-γGlu-C18 diacid])GGPSEGASLRHYYNWLTRQRY-NH2 (also: TFA salt)", "note": "[Compound 276]", "EC50 hNPY2R 0.5% hP (CreLuc)": 20.7, "EC50 hNPY2R 100% hP (CreLuc)": 73.7}, {"binder": "Y[Aib]EGTFTSDYSI[Aib]LEKQAQ[Aib]EFVEWLIK([AEEA-AEEA-γGlu-γGlu-γGlu-C20 diacid])GGPSEGASLRHYYNWLTRQRY-NH2 (also: TFA salt)", "note": "[Compound 273]", "EC50 hNPY2R 0.5% hP (CreLuc)": 19.3, "EC50 hNPY2R 100% hP (CreLuc)": 76.3}, {"binder": "Y[Aib]EGTFTSDYSI[Aib]LEKQAE[Aib]AFVEWLIKGGPSEGASLRHYYNWLTRQRY-NH2 (not fully specified (residue 28); also: TFA salt)", "note": "[Compound 278]", "EC50 hNPY2R 0.5% hP (CreLuc)": 17.5, "EC50 hNPY2R 100% hP (CreLuc)": 88.6}, {"binder": "Y[Aib]EGTFTSDYSI[Aib]LEKQAQ[Aib]AFVEWLIK([εLys-γGlu-γGlu-γGlu-γGlu-γGlu-γGlu-γGlu-C20 diacid])GGPSEGASLRHYYNWLTRQRY-NH2 (also: TFA salt)", "note": "[Compound 288]", "EC50 hNPY2R 0.5% hP (CreLuc)": 14.3, "EC50 hNPY2R 100% hP (CreLuc)": 36.8}, {"binder": "Y[Aib]EGTFTSDYSI[Aib]LEKQAQ[Aib]EFVEWLIK([AEEA-AEEA-γGlu-γGlu-γGlu-C18 diacid])GGPSEGASLRHYYNWLTRQRY-NH2 (also: TFA salt)", "note": "[Compound 284]", "EC50 hNPY2R 0.5% hP (CreLuc)": 18.8, "EC50 hNPY2R 100% hP (CreLuc)": 44.7}, {"binder": "Y[Aib]EGTFTSDYSI[Aib]LEKQAQ[Aib]AFVEWLIK([AEEA-AEEA-γGlu-γGlu-γGlu-γGlu-C20 diacid])GGPSEGASLRHYYNWLTRQRY-NH2 (also: TFA salt)", "note": "[Compound 287]", "EC50 hNPY2R 0.5% hP (CreLuc)": 13.3, "EC50 hNPY2R 100% hP (CreLuc)": 45.9}, {"binder": "Y[Aib]EGTFTSDYSI[Aib]LEKQAQ[Aib]EFVEWLIK([Ahx-γGlu-γGlu-γGlu-γGlu-γGlu-γGlu-C18 diacid])GGPSEGASLRHYYNWLTRQRY-NH2 (also: TFA salt)", "note": "[Compound 279]", "EC50 hNPY2R 0.5% hP (CreLuc)": 32.4, "EC50 hNPY2R 100% hP (CreLuc)": 103}]}, {"molecular_target": "human GLP-1 receptor (human, UniProt P43220 24-463)", "assay": "cell-based or functional assay", "units": {"EC50 hGLP1R 0.5% hP (CreLuc)": "nM", "EC50 hGLP1R 100% hP (CreLuc)": "nM"}, "values": [{"binder": "Y[Aib]EGTFTSDYSI[Aib]LEKQAE[Aib]AFVEWLIK([γGlu-γGlu-γGlu-γGlu-C20 diacid])GGPSEGASLRHYYNWLTRQRY-NH2 (also: TFA salt)", "note": "[Compound 280]", "EC50 hGLP1R 0.5% hP (CreLuc)": 0.44, "EC50 hGLP1R 100% hP (CreLuc)": 14.7}, {"binder": "Y[Aib]EGTFTSDYSI[Aib]LEKQAQ[Aib]AFVEWLIK([γGlu-γGlu-γGlu-γGlu-C18 diacid])GGPEEGASLRHYYNWLTRQRY-NH2 (also: TFA salt)", "note": "[Compound 272]", "EC50 hGLP1R 0.5% hP (CreLuc)": 0.31, "EC50 hGLP1R 100% hP (CreLuc)": 15.6}, {"binder": "Y[Aib]EGTFTSDYSI[Aib]LEKQAQ[Aib]EFVEWLIK([γGlu-γGlu-γGlu-γGlu-C18 diacid])GGPSEGASLRHYYNWLTRQRY-NH2 (also: TFA salt)", "note": "[Compound 276]", "EC50 hGLP1R 0.5% hP (CreLuc)": 0.35, "EC50 hGLP1R 100% hP (CreLuc)": 16.7}, {"binder": "Y[Aib]EGTFTSDYSI[Aib]LEKQAQ[Aib]EFVEWLIK([AEEA-AEEA-γGlu-γGlu-γGlu-C20 diacid])GGPSEGASLRHYYNWLTRQRY-NH2 (also: TFA salt)", "note": "[Compound 273]", "EC50 hGLP1R 0.5% hP (CreLuc)": 0.75, "EC50 hGLP1R 100% hP (CreLuc)": 19.2}, {"binder": "Y[Aib]EGTFTSDYSI[Aib]LEKQAE[Aib]AFVEWLIKGGPSEGASLRHYYNWLTRQRY-NH2 (not fully specified (residue 28); also: TFA salt)", "note": "[Compound 278]", "EC50 hGLP1R 0.5% hP (CreLuc)": 0.56, "EC50 hGLP1R 100% hP (CreLuc)": 13}, {"binder": "Y[Aib]EGTFTSDYSI[Aib]LEKQAQ[Aib]AFVEWLIK([εLys-γGlu-γGlu-γGlu-γGlu-γGlu-γGlu-γGlu-C20 diacid])GGPSEGASLRHYYNWLTRQRY-NH2 (also: TFA salt)", "note": "[Compound 288]", "EC50 hGLP1R 0.5% hP (CreLuc)": 0.17, "EC50 hGLP1R 100% hP (CreLuc)": 3.21}, {"binder": "Y[Aib]EGTFTSDYSI[Aib]LEKQAQ[Aib]EFVEWLIK([AEEA-AEEA-γGlu-γGlu-γGlu-C18 diacid])GGPSEGASLRHYYNWLTRQRY-NH2 (also: TFA salt)", "note": "[Compound 284]", "EC50 hGLP1R 0.5% hP (CreLuc)": 0.51, "EC50 hGLP1R 100% hP (CreLuc)": 12.6}, {"binder": "Y[Aib]EGTFTSDYSI[Aib]LEKQAQ[Aib]AFVEWLIK([AEEA-AEEA-γGlu-γGlu-γGlu-γGlu-C20 diacid])GGPSEGASLRHYYNWLTRQRY-NH2 (also: TFA salt)", "note": "[Compound 287]", "EC50 hGLP1R 0.5% hP (CreLuc)": 0.27, "EC50 hGLP1R 100% hP (CreLuc)": 6.34}, {"binder": "Y[Aib]EGTFTSDYSI[Aib]LEKQAQ[Aib]EFVEWLIK([Ahx-γGlu-γGlu-γGlu-γGlu-γGlu-γGlu-C18 diacid])GGPSEGASLRHYYNWLTRQRY-NH2 (also: TFA salt)", "note": "[Compound 279]", "EC50 hGLP1R 0.5% hP (CreLuc)": 0.72, "EC50 hGLP1R 100% hP (CreLuc)": 13.4}]}, {"molecular_target": "T2, human GIP receptor (human, UniProt P48546 22-466)", "T2 sequence (looked up)": "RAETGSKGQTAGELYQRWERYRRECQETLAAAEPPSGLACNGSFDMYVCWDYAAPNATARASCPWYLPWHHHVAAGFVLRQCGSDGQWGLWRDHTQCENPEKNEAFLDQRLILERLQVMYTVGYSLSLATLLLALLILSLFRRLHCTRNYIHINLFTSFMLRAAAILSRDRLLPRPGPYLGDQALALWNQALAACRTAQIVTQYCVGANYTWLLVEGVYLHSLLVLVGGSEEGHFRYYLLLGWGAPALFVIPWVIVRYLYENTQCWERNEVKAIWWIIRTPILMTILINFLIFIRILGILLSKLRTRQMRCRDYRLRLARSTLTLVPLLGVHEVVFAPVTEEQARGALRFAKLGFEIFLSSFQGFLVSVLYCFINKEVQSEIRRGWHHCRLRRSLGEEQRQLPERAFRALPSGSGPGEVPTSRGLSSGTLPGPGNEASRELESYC", "assay": "cell-based or functional assay", "units": {"EC50 hGIPR 0.5% hP (CreLuc)": "nM", "EC50 hGIPR 100% hP (CreLuc)": "nM"}, "values": [{"binder": "Y[Aib]EGTFTSDYSI[Aib]LEKQAE[Aib]AFVEWLIK([γGlu-γGlu-γGlu-γGlu-C20 diacid])GGPSEGASLRHYYNWLTRQRY-NH2 (also: TFA salt)", "note": "[Compound 280]", "EC50 hGIPR 0.5% hP (CreLuc)": 0.38, "EC50 hGIPR 100% hP (CreLuc)": 2.44}, {"binder": "Y[Aib]EGTFTSDYSI[Aib]LEKQAQ[Aib]AFVEWLIK([γGlu-γGlu-γGlu-γGlu-C18 diacid])GGPEEGASLRHYYNWLTRQRY-NH2 (also: TFA salt)", "note": "[Compound 272]", "EC50 hGIPR 0.5% hP (CreLuc)": 0.24, "EC50 hGIPR 100% hP (CreLuc)": 3.01}, {"binder": "Y[Aib]EGTFTSDYSI[Aib]LEKQAQ[Aib]EFVEWLIK([γGlu-γGlu-γGlu-γGlu-C18 diacid])GGPSEGASLRHYYNWLTRQRY-NH2 (also: TFA salt)", "note": "[Compound 276]", "EC50 hGIPR 0.5% hP (CreLuc)": 0.37, "EC50 hGIPR 100% hP (CreLuc)": 1.82}, {"binder": "Y[Aib]EGTFTSDYSI[Aib]LEKQAQ[Aib]EFVEWLIK([AEEA-AEEA-γGlu-γGlu-γGlu-C20 diacid])GGPSEGASLRHYYNWLTRQRY-NH2 (also: TFA salt)", "note": "[Compound 273]", "EC50 hGIPR 0.5% hP (CreLuc)": 0.38, "EC50 hGIPR 100% hP (CreLuc)": 1.52}, {"binder": "Y[Aib]EGTFTSDYSI[Aib]LEKQAE[Aib]AFVEWLIKGGPSEGASLRHYYNWLTRQRY-NH2 (not fully specified (residue 28); also: TFA salt)", "note": "[Compound 278]", "EC50 hGIPR 0.5% hP (CreLuc)": 0.14, "EC50 hGIPR 100% hP (CreLuc)": 1.38}, {"binder": "Y[Aib]EGTFTSDYSI[Aib]LEKQAQ[Aib]AFVEWLIK([εLys-γGlu-γGlu-γGlu-γGlu-γGlu-γGlu-γGlu-C20 diacid])GGPSEGASLRHYYNWLTRQRY-NH2 (also: TFA salt)", "note": "[Compound 288]", "EC50 hGIPR 0.5% hP (CreLuc)": 0.51, "EC50 hGIPR 100% hP (CreLuc)": 2.43}, {"binder": "Y[Aib]EGTFTSDYSI[Aib]LEKQAQ[Aib]EFVEWLIK([AEEA-AEEA-γGlu-γGlu-γGlu-C18 diacid])GGPSEGASLRHYYNWLTRQRY-NH2 (also: TFA salt)", "note": "[Compound 284]", "EC50 hGIPR 0.5% hP (CreLuc)": 0.33, "EC50 hGIPR 100% hP (CreLuc)": 0.8}, {"binder": "Y[Aib]EGTFTSDYSI[Aib]LEKQAQ[Aib]AFVEWLIK([AEEA-AEEA-γGlu-γGlu-γGlu-γGlu-C20 diacid])GGPSEGASLRHYYNWLTRQRY-NH2 (also: TFA salt)", "note": "[Compound 287]", "EC50 hGIPR 0.5% hP (CreLuc)": 0.34, "EC50 hGIPR 100% hP (CreLuc)": 2.42}, {"binder": "Y[Aib]EGTFTSDYSI[Aib]LEKQAQ[Aib]EFVEWLIK([Ahx-γGlu-γGlu-γGlu-γGlu-γGlu-γGlu-C18 diacid])GGPSEGASLRHYYNWLTRQRY-NH2 (also: TFA salt)", "note": "[Compound 279]", "EC50 hGIPR 0.5% hP (CreLuc)": 0.71, "EC50 hGIPR 100% hP (CreLuc)": 1.76}]}]}
